According to patent publication US20220331371A1, “DEVELOPMENT OF EMBRYONIC-LIKE TISSUE FROM STEM CELLS” (The Regents of the University of Michigan, priority 2019, published 2022):

B1: WNT3A: exogenous Wnt protein (R&D Systems) (protein, UniProt P56704 19-352, looked up)
Protein Wnt-3a: SYPIWWSLAVGPQYSSLGSQPILCASIPGLVPKQLRFCRNYVEIMPSVAEGIKIGIQECQHQFRGRRWNCTTVHDSLAIFGPVLDKATRESAFVHAIASAGVAFAVTRSCAEGTAAICGCSSRHQGSPGKGWKWGGCSEDIEFGGMVSREFADARENRPDARSAMNRHNNEAGRQAIASHMHLKCKCHGLSGSCEVKTCWWSQPDFRAIGDFLKDKYDSASEMVVEKHRESRGWVETLRPRYTYFKVPTERDLVYYEASPNFCEPNPETGSFGTRDRTCNVSSHGIDGCDLLCCGRGHNARAERRREKCRCVFHWCCYVSCQECTRVYDVHTCK
B2: Activin A: exogenous activin protein (R&D Systems) (protein, UniProt P08476 311-426, looked up)
Inhibin beta A chain: GLECDGKVNICCKKQFFVSFKDIGWNDWIIAPSGYHANYCEGECPSHIAGTSGSSLSFHSTVINHYRMRGHSPFANLKSCCVPTKLRPMSMLYYDDGQNIIKKDIQNMIVEECGCS
modifications: Inhibin beta A chain
B3: BMP4: Bone Morphogenic Protein 4 (R&D Systems) (protein, UniProt P12644 293-408, looked up)
Bone morphogenetic protein 4: SPKHHSQRARKKNKNCRRHSLYVDFSDVGWNDWIVAPPGYQAFYCHGDCPFPLADHLNSTNHAIVQTLVNSVNSSIPKACCVPTELSAISMLYLDEYDKVVLKNYQEMVVEGCGCR

Test system: embryonic-like sacs (P-ELS, A-ELS)
Assay: Microfluidic generation of asymmetric embryonic-like sacs with morphogens in the induction channel
Format: cell-based, human
Conditions: for Cyst phenotype obtained: 50 ng ml^−1 each, supplemented into the induction channel
Source text: Cell lines. hPSC lines used in this study include H1 human ES cell (WA01, WiCell; NIH registration number: 0043), H9 human ES cell (WA09, WiCell; NIH registration number: 0062) and 1196a (a human iPSC line from the University of Michigan Pluripotent Stem Cell Core31). All hPSC lines have been authenticated by original sources as well as in-house by immunostaining for pluripotency markers and successful differentiation to the three germ layers. All hPSC lines are maintained in a feeder-free system for at least ten passages and authenticated as karyotypically normal. Karyotype analysis was performed by Cell Line Genetics. All hPSC lines are tested negative for mycoplasma contamination (LookOut Mycoplasma PCR Detection Kit, Sigma-Aldrich). Cell culture. hPSCs were maintained in a standard feeder-free culture system using mTeSR medium (mTeSR; STEMCELL Technologies) or TeSR-E8 medium (Essential 8 or E8; STEMCELL Technologies) and lactate dehydrogenase-elevating virus (LDEV)-free, human ES cell-qualified reduced growth factor basement membrane matrix Geltrex (Thermo Fisher Scientific; derived from Engelbreth-Holm-Swarm tumors similarly to Matrigel). Cell cultures were visually examined during each passage to ensure absence of spontaneously differentiated, mesenchymal-like cells in culture. All hPSCs were used before reaching P70. Device fabrication. The microfluidic device consists of a polydimethylsiloxane (PDMS) structure layer bonded to a coverslip. The PDMS structure layer is made by mixing PDMS curing agent and base polymer (Sylgard 184; Dow Coming) at a ratio of 1:10 before casting PDMS prepolymer onto a microfabricated silicon mold and baking at 110° C. for 40 min. Medium reservoirs (8 mm in diameter) and gel-loading ports (1.2 mm in diameter) were then punched into the PDMS structure layer using Harris Uni-Core punch tools (Ted Pella). After cleaning with ethanol and air plasma activation, the PDMS structure layer was bonded to a coverslip before baking at 80° C. overnight. Before usage, the microfluidic device was sterilized under UV light for 30 min. Geltrex diluted in mTeSR (8 mg ml^−1) was then injected into the central gel channel and allowed to cure for 10 min at 37° C. in an incubator. The central gel channel was separated from the cell loading and induction channels by trapezoid-shaped supporting posts. Diluted Geltrex matrix was contained in the gel channel by supporting posts owing to surface tension. Upon gelation, Geltrex matrix contracts, generating concave Geltrex pockets between supporting posts. mTeSR medium was immediately added to medium reservoirs to fill both the cell loading and induction channels. The microfluidic device was then incubated at 37° C. and 5% CO2, for 24 h to stabilize the Geltrex matrix in the gel channel. Microfluidic assays. Colonies of hPSCs were dissociated by Accutasc. (Sigma-Aldrich) at 37° C., for 10 min before being suspended in mTeSR as single cells. Cells were then centrifuged and resuspended in mTeSR, containing 10 μM Y27632 (Tocris), a ROCK inhibitor that prevents dissociation-induced apoptosis of hPSCs32, at a concentration of 8×10^6 cells per ml. After aspirating mTeSR from medium reservoirs, 10 μl hPSC suspension was introduced into the cell-loading channel (t=−18 h), The microfluidic device was then tilted 90° for 10 min to allow cell settlement into Geltrex pockets and their clustering and adhesion to Geltrex matrix. Medium reservoirs were then refilled with fresh mTeSR medium containing 10 μM Y27632. […]

Row | Molecule | Cyst phenotype obtained | Requirement for embryonic-like sac formation (induction channel, with or without BMP4) | Cysts differentiated into asymmetrical E-cadherin+ sacs (P-ELS) (BMP4 50 ng ml^−1 in induction channel from t=0 h, t=36 h) | Cysts patterned to amniotic ectoderm-like fate (A-ELS) (BMP4 in induction channel, IWP2 and noggin in cell-loading channel, t=36 h)
1 | B1 | columnar epiblast-like cysts containing OCT4^+NANOG^+, COX2^−EOMES^−T^− EPILCs | dispensable |  | 
2 | B2 | cysts containing OCT4^+NANOG^+EPILCs intermixed with EOMES^+T^+CDX2^− anterior primitive streak-like cells |  |  | 
3 | B3 |  |  | 92% | 96%
